Laboratory results: PMC8115334

Tests used:
[1] = target: Prolink (PK)-tagged CXC chemokine receptor 4 (CXCR4) (UniProt P61073)
[2] = target: Prolink (PK)-tagged CXC chemokine receptor 4 (CXCR4) (UniProt P61073); remark: listed apart in the source

UniProt P61073, sequence (P61073 whole entry): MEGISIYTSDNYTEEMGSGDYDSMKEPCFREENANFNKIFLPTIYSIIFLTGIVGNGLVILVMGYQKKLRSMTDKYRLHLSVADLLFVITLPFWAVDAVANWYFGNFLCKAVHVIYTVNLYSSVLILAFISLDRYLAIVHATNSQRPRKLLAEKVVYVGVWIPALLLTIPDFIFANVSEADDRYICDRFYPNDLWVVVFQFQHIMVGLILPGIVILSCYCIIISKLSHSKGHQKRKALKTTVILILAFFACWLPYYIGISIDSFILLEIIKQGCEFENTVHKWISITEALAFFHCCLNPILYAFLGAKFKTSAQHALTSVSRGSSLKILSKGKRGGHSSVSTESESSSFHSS

- β-arrestin2 recruitment to PK-tagged CXCR4 (PathHunter, C2C12 cells), potency of CXCL12 (pEC50) [1]: 7.7 pEC50
- half-time of internalization of SNAP-tagged CXCR4 in HEK293A cells with 1 µM CXCL12 (constitutive: 22.1 min) [2]: 14.1 min
- real-time internalization of N-terminally SNAP-tagged CXCR4 in HEK293A cells, CXCL12 0.1 nM to 1 µM, potency of CXCL12 (pEC50) [2]: 7.7 pEC50
Substance: CXC chemokine ligand 12 (CXCL12) (from UniProt P48061 22-93)
